Data as given in PMC9230395.

Target: T1, ZBP1 (recombinant Z-DNA-binding protein) (UniProt Q9H171)
T1 sequence: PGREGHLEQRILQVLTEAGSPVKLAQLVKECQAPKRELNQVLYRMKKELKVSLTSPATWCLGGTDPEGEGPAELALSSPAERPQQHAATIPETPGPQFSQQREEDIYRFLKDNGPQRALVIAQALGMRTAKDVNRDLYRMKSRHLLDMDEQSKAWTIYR
Assay: BLI
Conditions: 10 mM MgCl2; kon 8.28e3 M-1 s-1, koff 4.68e-6 s-1; strands 1 and 2 circular; BLI: 1x PBS (10 mM phosphate) pH 7.2, 10 mM MgCl2, 0.1% BSA, 0.02% Tween-20, 25 C; EMSA: 10 mM phosphate pH 7.2, 10 mM MgCl2, 0.25 uM DNA, 6% PAGE (cc-91A) …

Sequence: CGTGTGATATAGGTGAACGCGCGTGTGTGTATATGTGTGCGATCGTAGAACTTGTGAACCCTTATACCATGCACGATCGCACATTTCGCACA / GCACACATATACACACACGCGCGTTCACCTATATCACACGTGACTTGTAATTAGTAACTACCAACGTGCGTGTGTGTCAGTCAGCGAAATGTGCGATCGTGCATGGTATAAGGGTTCACAAGTTCTACGATC / TTTTTACCTCACTATACTTACATGTTTTTTGGTAGTTACTAATTACAAGT [Bait-cc-91A (cc-91A + lB50)]
- Kd: 0.566 nM
